The target in the test is human FcγRIIb on Huvec-2b cells (Homo sapiens (Human)., UniProt P31994). The test is described as follows: flow cytometry on cells.
human FcγRIIb on Huvec-2b cells, sequence (P31994 43-310): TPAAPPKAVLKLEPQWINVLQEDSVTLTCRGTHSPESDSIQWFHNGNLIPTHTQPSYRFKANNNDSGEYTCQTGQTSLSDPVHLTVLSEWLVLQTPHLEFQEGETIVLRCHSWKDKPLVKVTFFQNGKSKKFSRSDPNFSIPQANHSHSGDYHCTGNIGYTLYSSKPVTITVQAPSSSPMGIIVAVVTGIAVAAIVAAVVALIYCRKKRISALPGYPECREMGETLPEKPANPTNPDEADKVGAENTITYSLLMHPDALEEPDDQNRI

B1: SK4-Fc (Fc fusion, human)
VH: QVQLVETGGGVVQVGRSLRLSCAASGFTFSHYGMHWVRQAPGKGLEWVSGISWNSDRRGYADSVKGRFTISRDNTKNSLYLQMNSLRAEDTAVYYCVREFYDAFDIWGQGTMVTVSS
VL: DIQMTQSPSSLPAYVGDRVTISCRASQSIRTYLNWYRQKVGKAPELLVYDASSLHKGVPSRFSASGSGTDFSLTISSLQPEDFATYYCQQSFSSPRTFGQGTKVEIK
On to B1, for which the binding result is given as “binds”.

B2: SK3-Fc (Fc fusion, human)
VH: QVLVETGGGVVQPGRSLRLSCAASGFTFSSYGMHWVRQAPGKGLEWVAVISYDGDDKDYADSVKGRFTISRDNADSSVFLQMNSLRAEDTALYYCAREGQWVGGALDIWGQGTMVTVSS
VL: DIVMTQSPSTLSASLGDTVTITCRASQSINGWLAWYQQKPGKAPNLLIYQAPNLESGVPSRFSGSGSGTEFTLTINGLQPDDFATYYCQKYDNAPHTFGQGTKVEIK
Consider B2, for which the binding result is reported as “binds”.

For the origin of these results see PMC12804944 (Nature Communications, 2025).
